This is an account of results in patent US20120316071A1 (published 2012).

For experiment [1], the target named is T1, rHuman Erythropoietin R/Fc Chimera, CF (R&D Systems Cat#963-ER) (human, UniProt P19235 25-250).
T1 construct: Bought reagent; also called EPO R/Fc; EPO R; Fc part of the bought chimera not given
T1 sequence (looked up): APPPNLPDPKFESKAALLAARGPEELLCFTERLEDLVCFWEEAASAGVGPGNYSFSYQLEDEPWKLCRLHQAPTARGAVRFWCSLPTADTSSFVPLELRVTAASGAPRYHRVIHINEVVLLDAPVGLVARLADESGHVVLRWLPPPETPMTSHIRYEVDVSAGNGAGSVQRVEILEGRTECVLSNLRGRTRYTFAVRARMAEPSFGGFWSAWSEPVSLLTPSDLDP
Kind of experiment: MSD Multispot ECL, antigen spotted on plate, Fab 230 nM; blank spot 1656.

Experiment [2] concerns the target T2, Recombinant Human DLL4 (R&D Systems Cat#1506-D4/CF) (human, UniProt Q9NR61 27-529).
T2 construct: Bought recombinant protein; also called rHuman DLL4; delta-like protein 4
Described as above.

For experiment [3], the target named is T3, rHuman IGF-1 sR, (IGF-1 sR), CF (R&D Systems Cat#391-GR) (human, UniProt P08069 31-932).
T3 construct: Bought soluble receptor; also called insulin-like growth factor-1 soluble receptor
The experiment is described as above.

Experiment [4] has as its target T4, rHuman Notch-1/Fc Chimera, CF (R&D Systems Cat#3647-TK) (human, UniProt P46531 19-526).
T4 construct: Bought reagent; Fc part of the bought chimera not given
The description is as above.

Experiment [5] deals with T1, rHuman Erythropoietin R/Fc Chimera, CF …. Kind of experiment: MSD Multispot ECL, antigen spotted on plate, Fab 14.375 nM; blank spot 738.
For experiment [6], the target named is T2, Recombinant Human DLL4 (R&D Systems …). Described as above.
The target in experiment [7] is T3, rHuman IGF-1 sR, (IGF-1 sR), CF (R&D …). The description is as above.
Experiment [8] has as its target T4, rHuman Notch-1/Fc Chimera, CF (R&D …). The description is as above.
Experiment [9] concerns the target T1, rHuman Erythropoietin R/Fc Chimera, CF …. Kind of experiment: MSD Multispot ECL, antigen spotted on plate, Fab 920 nM; blank spot 4082.
Experiment [10] concerns the target T2, Recombinant Human DLL4 (R&D Systems …). The experiment is described as above.
In experiment [11] the target is T3, rHuman IGF-1 sR, (IGF-1 sR), CF (R&D …). Described as above.
Experiment [12] has as its target T4, rHuman Notch-1/Fc Chimera, CF (R&D …). The description is as above.
Experiment [13] concerns the target T1, rHuman Erythropoietin R/Fc Chimera, CF …. Kind of experiment: MSD Multispot ECL, antigen spotted on plate, Fab 57.5 nM; blank spot 954.
Experiment [14] has as its target T2, Recombinant Human DLL4 (R&D Systems …). The description is as above.
Experiment [15] deals with T3, rHuman IGF-1 sR, (IGF-1 sR), CF (R&D …). Described as above.
In experiment [16] the target is T4, rHuman Notch-1/Fc Chimera, CF (R&D …). The experiment is described as above.
Experiment [17] addresses T5, rHuman IGF-1 sR, (IGF-1 sR), CF (R&D Systems Cat#391-GR) (human, UniProt P08069 31-932).
T5 construct: Bought soluble receptor; also called insulin-like growth factor-1 soluble receptor
Kind of experiment: Multispot ECL (MSD), antigen spotted on plate, Fab 60 nM; blank spot 1433.

Experiment [18] deals with T6, Recombinant Human DLL4 (R&D Systems Cat#1506-D4/CF) (human, UniProt Q9NR61 27-524).
T6 construct: it includes the signal peptide (amino acids 1-25), the transmembrane region and the cytoplasmic domain; also called delta-like protein 4; rHuman DLL4
Described as above.

In experiment [19] the target is T7, rHuman ErbB2/Fc Chimera, CF (R&D Systems Cat#1129-ER) (human, UniProt P04626 23-652).
T7 construct: Bought recombinant protein; also called human epidermal growth factor 2 receptor; Fc part of the bought chimera not given
The description is as above.

The target in experiment [20] is T8, rHuman CD44/Fc Chimera, CF (R&D Systems Cat#3660-CD) (human, UniProt P16070 21-220).
T8 construct: Bought recombinant protein; Fc part of the bought chimera not given
The description is as above.

The target of experiment [21] is T5, rHuman IGF-1 sR, (IGF-1 sR), CF (R&D …). Kind of experiment: Multispot ECL (MSD), antigen spotted on plate, Fab 0.9375 nM; blank spot 153.
The target in experiment [22] is T6, Recombinant Human DLL4 (R&D Systems …). Described as above.
The target of experiment [23] is T7, rHuman ErbB2/Fc Chimera, CF (R&D …). Described as above.
Experiment [24] has as its target T8, rHuman CD44/Fc Chimera, CF (R&D Systems …). The experiment is described as above.
Experiment [25] deals with T5, rHuman IGF-1 sR, (IGF-1 sR), CF (R&D …). Kind of experiment: Multispot ECL (MSD), antigen spotted on plate, Fab 15 nM; blank spot 536.
Experiment [26] has as its target T6, Recombinant Human DLL4 (R&D Systems …). The experiment is described as above.
Experiment [27] concerns the target T7, rHuman ErbB2/Fc Chimera, CF (R&D …). The description is as above.
Experiment [28] deals with T8, rHuman CD44/Fc Chimera, CF (R&D Systems …). Described as above.
Experiment [29] concerns the target T5, rHuman IGF-1 sR, (IGF-1 sR), CF (R&D …). Kind of experiment: Multispot ECL (MSD), antigen spotted on plate, Fab 3.75 nM; blank spot 191.
Experiment [30] concerns the target T6, Recombinant Human DLL4 (R&D Systems …). Described as above.
Experiment [31] concerns the target T7, rHuman ErbB2/Fc Chimera, CF (R&D …). Described as above.
The target in experiment [32] is T8, rHuman CD44/Fc Chimera, CF (R&D Systems …). The experiment is described as above.

B1: Fab VH1-46_IGHD3-10*01_IGHJ4*01 & L12_IGKJ1*01 (Fab, V domains shown)
VH: QVQLVQSGAEVKKPGASVKVSCKASGYTFTSYYMHWVRQAPGQGLEWMGIINPSGGSTSYAQKFQGRVTMTRDTSTSTVYMELSSLRSEDTAVYYCAREYYYGSGSYYNDYFDYWGQGTLVTVSS
VL: not shown
notes: Tested as a Fab made in E. coli; VH was cloned into Plasmid A (CH1 with His6 and Flag tags) and the kappa VL into Plasmid C (kappa CL)
In the case of B1, the ECL signal in experiment [1] was found to be 6950; in experiment [2], 119000; in experiment [3] it was 4760; in experiment [4] it was 9740; in [5], 2720; in experiment [6], 125000. Moreover, the ECL signal in [7] is 1750; in [8] it was 4210; in experiment [9], 16400; in [10] it was 73600; in experiment [11], 10200; in [12], 20100. In addition, the ECL signal in [13] was determined as 4040; in experiment [14] it was 144000; in experiment [15], 2830; in experiment [16], 5890.

B2: Fab VH1-3_IGHD4-23*01_IGHJ4*01 & L12_IGKJ1*01 (Fab, V domains shown)
VH: QVQLVQSGAEVKKPGASVKVSCKASGYTFTSYAMHWVRQAPGQRLEWMGWSNAGNGNTKYSQEFQGRVTITRDTSASTAYMELSSLRSEDMAVYYCARDDYGGNSDYFDYWGQGTLVTVSS
VL: not shown
Regarding B2, the ECL signal came out at 2670 in [17]; 17300 in experiment [18]; 2160 in experiment [19]; 2360 in [20]; 204 in [21]; 453 in [22]. Further, the ECL signal in experiment [23] was 268; in [24], 251; in experiment [25] it was 859; in experiment [26], 7730; in experiment [27], 740; in [28], 748. For the same molecule, the ECL signal is 314 in [29], 1570 in experiment [30], 291 in experiment [31] and 307 in experiment [32].
